Measurements as given in US20050222039A1, “Animal treatment” (priority 2001, published 2005).

Legend:
[1] = test system: Romney ewes; experiment: Trial 2: bromocriptine treatment of winter-lambing Romney ewes (plasma prolactin, wool growth, lambs); type: in vivo, sheep; settings: bromocriptine given to pregnant ewes before or after parturition
Method: Natural and experimental changes in plasma prolactin concentration and their effects on wool production in winter-lambing Romney ewes were measured.
Fourteen non-pregnant and 29 pregnant ewes were maintained indoors from early April 1995 for 12 months under controlled photoperiod and controlled dietary intake. Two groups (n=8) were held under long day photoperiod (16L:8D; LD non-pregnant and LD-lambed) while 2 others were exposed to natural photoperiod (ND non-pregnant, n=6 and ND-lambed, n=7). Two further groups (n=7) of pregnant ewes housed in natural days were treated with bromocriptine, either from 1 week before parturition (ND-BrB) or 1-3 days after parturition (ND-BrA), to suppress prolactin secretion.
Lambing occurred between 12 and 18 June. Plasma prolactin, mean fibre diameter and wool growth were measured at regular intervals and the results were plotted in FIG. 3.

[2] = test system: prolactin receptor gene expression; experiment: Trial 6: skin prolactin receptor gene expression in Romney or Wiltshire ewes; type: in vivo, sheep; settings: Wiltshire ewes treated in April, P<0.05
Method: (§1) Four groups, each comprised of seven 1-2 year old Romney or Wiltshire ewes were shorn and maintained indoors in individual pens from March until November 2002. The animals were fed to maintain a constant maternal live weight (independent of conceptus and fleece weights). The ewes were mated in March, and maintained in short days (8L:16D). Half of the ewes were cannulated and infusions of prolactin (40 mg/day) for 9 days commenced one week after mating. Blood samples and skin biopsies were collected from all ewes at intervals to monitor plasma prolactin and skin prolactin receptor gene expression respectively. The results are plotted in FIG. 11.

[3] = test system: prolactin receptor long form gene expression; experiment: Trial 4: skin prolactin receptor long form gene expression by real-time PCR; type: in vivo, sheep
Method: (§2) The relative expression of prolactin receptor mRNA was measured using Taqman real-time PCR (Applied Biosystems). RNA was extracted from skin samples using TRIzol reagent according to manufactures protocol (Invitrogen). Total RNA was then quantified using RiboGreen reagent (Invitrogen) and all samples were standardized to a concentration of 0.5 μg/μl of total RNA. The reverse transcriptase reaction (Superscript II RT-PCR kit, Invitrogen) was used to generate single stranded cDNA from 0.5 μg of total RNA.
(§3) The primers and probes for the long form of the prolactin receptor were designed using the Primer Express program (Applied Biosystems).
(§4) The 18S ribosomal RNA pre-developed assay reagent (Applied Biosystems) was used as an internal control and the reactions were set up according to the manufacturers instructions. Data was analysed using the software provided by Applied Biosystems. Results on relative mRNA quantities were obtained by the standard curve method.
(§5) Six midside skin biopsies were collected at intervals between April and June for measurement of prolactin receptor long form gene expression by real-time PCR and the results are plotted in FIG. 9.

[4] = test system: prolactin receptor long form gene expression; experiment: Trial 5: skin prolactin receptor long form gene expression by real-time PCR; type: in vivo, sheep
Method: as §2
(§6) Twenty-one, mixed age, non-pregnant Romney ewes were maintained indoors in individual pens from September 2001 until February 2002. The ewes were fed to maintain a constant live weight. They were divided into 3 groups: short day controls (n=7), short day prolactin infused (n=7) and normal day controls (n=7). An ovine prolactin pituitary extract (1.0 mg/kg/day) was administered to each ewe in the short day infused group by intravenous infusion via a jugular cannula commencing on 9 October for 9 days. A second 9-day prolactin infusion was administered to the same ewes commencing on 20 November, 33 days after the end of the first infusion.
Plasma prolactin concentrations were measured at regular intervals and ten midside skin biopsies were collected at intervals between October and December 2001 for measurement of prolactin receptor long form gene expression by real-time PCR. […]

[5] = test system: Romney ewes; experiment: Trial 4: 3-, 9- or 18-day prolactin infusion, wool growth in pregnant Romney ewes; type: in vivo, sheep; settings: for mean total patch weight (clean wool): 12-month trial
Method: Trial 4 was conducted to compare different periods of exogenous prolactin administration on wool growth.
Eighteen 3 year old Romney ewes were maintained indoors in individual pens under natural photoperiod for 12 months from March 2000. […] The ewes were fed to maintain a constant maternal live weight (independent of conceptus and fleece weights). A control group (ND non-pregnant) was not mated (n=6). Twelve other ewes (comprising Groups 2-4) were mated on 23 April.
An ovine prolactin pituitary extract (1.0 mg/kg/day) was administered by intravenous infusion via a jugular cannula commencing 11 days after mating (4 May) for temporary periods of either 3 days (Group 2, n=6), 9 days (Group 3, n=3) or 18 days (Group 4, n=3).
(§7) The sheep were shorn on entry to the experiment and again at the conclusion of the experiment in March 2001 and a mid-side wool sample was measured for fibre diameter and yield. Wool samples were clipped from a standardised 100×100 mm mid-side patch on the right side of each ewe at monthly intervals to determine changes in seasonal clean wool production and mean fibre diameter. Wool growth and plasma prolactin concentration were measured at regular intervals and the results were plotted in FIGS. 7 and 8.

[6] = Trial 6: plasma prolactin after 9-day prolactin infusion in pregnant Romney or Wiltshire ewes; type: in vivo, sheep; settings: infusion 40 mg/day for 9 days, pregnant ewes in short days
Method: as §1

[7] = test system: sheep; settings: sheep held in darkness, infusion of prolactin; cited from earlier work
[8] = test system: Romney ewes; type: in vivo, sheep
Source text: The effects of two methods of administration of exogenous prolactin on wool growth were examined.
Forty-three mixed age Romney ewes were maintained indoors in individual pens from April until October, and fed to maintain a constant maternal live weight (independent of conceptus and fleece weights). A control group (ND non-pregnant) was not mated (n=8). Thirty-five other ewes (comprising Groups 2-5) were mated in April. Groups 1-4 were maintained in natural photoperiod while Group 5 (LD-lambed, n=10) was subjected to long days (16L:8D) from 1 week after mating for the duration of the trial (ie 18 days).
An ovine prolactin pituitary extract (0.80 mg/kg/day) was administered by either daily subcutaneous injection to sheep of Group 3 (PRL-INJ, n=10) or by intravenous infusion via a jugular cannula to sheep of Group 4 (PRL-INF, n=2) (from one week after mating for a temporary period of 18 days).
as §7, with “late September” for “March 2001”, “concentrations” for “concentration”, “4” for “7”, “5.” for “8.”

[9] = test system: prolactin receptor gene expression; experiment: Trial 8: prolactin receptor gene expression in mice mammary gland; type: in vivo; settings: 3-day infused group, days 7 and 14, P<0.05
Method: Swiss female mice were maintained in cages at a constant temperature of 22 C., under a photoperiod regime of 14 hours light: 10 hours dark, fed a diet of formulated mouse pellets ad libitum with access to fresh tap water. At 21 days of age, subcutaneous implants releasing 250 μg/day of bromocriptine over 60 days (Cat. Number SC-231; Innovative Research of America Inc.) were inserted under anaesthetic. At the same time, the mice received a slow release 100 μl osmotic pump (Alzet Model 1007D; Alza Corporation, Palo Alto, Calif.) delivering ovine prolactin (400 μg/day) for either 3 or 7 days. Mice were sacrificed in groups of 3 at intervals before, during and after prolactin administration. They were anaesthetised using CO2 and blood sampled by heart puncture, prior to euthanasia by cervical dislocation. The blood was centrifuged and the plasma stored at −20 C. by radioimmunoassay for ovine prolactin. The mammary glands were dissected from each mouse and snap frozen in liquid nitrogen prior to assay by real-time PCR for prolactin receptor gene expression. The results are plotted in FIG. 13.

[10] = test system: rabbits; settings: bromocriptine-treated rabbits, single injection of 3 mg of prolactin; cited from earlier work
[11] = Trial 5: plasma prolactin after two 9-day prolactin infusions in non-pregnant Romney ewes; type: in vivo, sheep; settings: intravenous 1.0 mg/kg/day for 9 days
Method: as §6
Plasma prolactin concentrations were measured at regular intervals and ten midside skin biopsies were collected at intervals between October and December 2001 for measurement of prolactin receptor long form gene expression by real-time PCR. The results are plotted in FIG. 10.

[12] = test system: prolactin receptor long form gene expression; experiment: Trial 3: skin prolactin receptor long form gene expression by real-time PCR; type: in vivo, sheep
Method: as §5, with “6. An assay for the short form of the ovine prolactin receptor was also developed, but results are not presented since only very low levels of expression were detected.” for “9.”
as §2, §3, §4

[13] = test system: prolactin receptor; settings: cited from earlier work
[14] = test system: cows; settings: infusions of exogenous bovine prolactin; cited from earlier work
[15] = model parameter from literature

For `CC(C)C[C@H]1C(=O)N2CCC[C@H]2[C@]2(O)O[C@](NC(=O)[C@@H]3C=C4c5cccc6[nH]c(Br)c(c56)C[C@H]4N(C)C3)(C(C)C)C(=O)N12` [bromocriptine], the “birth weight or live weight changes of lambs” value [1] was “did not affect”.

B1: prolactin: ovine prolactin pituitary extract; peptide hormone of approximately 200 amino acids, given by infusion, injection or osmotic pump (protein, UniProt P01240 31-229, looked up)
Prolactin: TPVCPNGPGNCQVSLRDLFDRAVMVSHYIHNLSSEMFNEFDKRYAQGKGFITMALNSCHTSSLPTPEDKEQAQQTHHEVLMSLILGLLRSWNDPLYHLVTEVRGMKGVPDAILSRAIEIEEENKRLLEGMEMIFGQVIPGAKETEPYPVWSGLPSLQTKDEDARHSAFYNLLHCLRRDSSKIDTYLKLLNCRIIYNNNC
modifications: pituitary extract
In the case of B1, the “prolactin receptor gene expression in September vs non-treated Wiltshire ewes” value [2] is reported as “increase”, the “prolactin receptor gene expression following commencement of infusions” value ([3]; 3-day infusion group) is reported as “all groups except the 3-day group” and the “prolactin receptor gene expression following commencement of infusions” value ([3]; 9-day and 18-day infusion groups) is reported as “dropped significantly”. The “prolactin receptor gene expression following termination of infusions” value ([3]; all infused groups, not statistically significant) was “rose”, the “prolactin receptor gene expression” value ([4]; first 9-day infusion, P<0.01) was “elevated” and the “prolactin receptor gene expression” value ([4]; second 9-day infusion, P<0.02) was “elevated”. The “mean total patch weight (clean wool)” value ([5]; 3-day infusion) was 0.74 g, the “clean patch wool growth vs 3-day and 18-day infused groups” value ([5]; 9-day infusion 1.0 mg/kg/day, during May) was “higher wool growth” and the “mean total patch weight (clean wool)” value ([5]; 9-day infusion) was 0.91 g. The “mean fibre diameter difference vs other infused groups” value ([5]; 9-day infusion, July) was “approximately 3 μm”, the “wool growth rate vs other infused groups” value ([5]; 9-day infusion, July, P<0.01, persisted until November) was “higher than either of the other infused groups” and the “mean fibre diameter vs 3-day infused group” value ([5]; 9-day infusion, June, P<0.01) was “significantly higher”. The “mean total patch weight (clean wool)” value ([5]; 18-day infusion) was 0.66 g, the “plasma prolactin levels during prolactin administration” value [6] was “approximately 500 ng/ml” and the nitrogen retention [7] was “increases”. The “mean clean fleece weight” value ([8]; PRL-INF, 6-month trial, ND-lambed controls 1.23 kg, SEM ±0.13 kg, P<0.01) was 1.63 kg, the “increase in mean fibre diameter” value ([8]; PRL-INF, by September, P=0.05) was 2 μm and the “decline in clean wool growth rate” value ([8]; PRL-INF, intravenous infusion 18 days, n=2, May and throughout pregnancy) was “arrested in May and remained high”. The “September clean wool growth rate relative to untreated ND-lambed ewes” value ([8]; PRL-INF, intravenous infusion, P<0.001) was “approximately twice”, the “mean fibre diameter relative to ND-lambed controls” value ([8]; PRL-INJ, P<0.10) was “appeared to be lower” and the “September clean wool growth vs untreated ND-lambed ewes” value ([8]; PRL-INJ, daily subcutaneous injection, P<0.05) was “lower”. For the same molecule, the “decline in clean wool growth rate compared to pregnant controls” value ([8]; daily subcutaneous injections 0.8 mg/kg/day (PRL-INJ)) was “no initial effect”, the “prolactin receptor gene expression vs control group and 7-day infused group” value [9] was “elevated” and the “recovery in milk yield” value [10] was “accelerated”. For the same molecule, the “plasma prolactin levels on termination of the infusions” value [11] was “fell rapidly to baselines levels”, the “plasma prolactin levels during infusion” value ([11]; short day ewes) was “approximately 500 ng/ml” and the “prolactin receptor gene expression, differences between remaining treatment groups” value ([12]; PRL-INJ (injected) among remaining groups, over the trial) was “no significant differences”. The “duration of high level of receptor expression vs untreated ewes” value ([12]; infused ewes, April to June, P<0.05) was “sustained for two months”, the “prolactin receptor gene expression compared to other treatment groups” value ([12]; infused ewes, during and after the 18 day infusion, P<0.01) was “significantly elevated” and the “α, rate of formation of dimer complex” value ([13]; model parameter from literature [Gertler et al., 1996]) was 4.15 L/nmol/day. For the same molecule, the “d12, dissociation rate of hormone-receptor complex” value [13, 15] was 4717.4 day⁻¹, the “d, dissociation rate of hormone-receptor complex” value [13, 15] was 12.96 day⁻¹ and the “α1, rate of formation of trimer complex” value [13, 15] was 3.02 L/nmol/day. The “γ, clearance rate constant of plasma prolactin” value [13, 15] was 35.6 day⁻¹.

B2: bovine prolactin: exogenous bovine prolactin infused in cows (literature) (protein, UniProt P01239 31-229, looked up)
Prolactin: TPVCPNGPGNCQVSLRDLFDRAVMVSHYIHDLSSEMFNEFDKRYAQGKGFITMALNSCHTSSLPTPEDKEQAQQTHHEVLMSLILGLLRSWNDPLYHLVTEVRGMKGAPDAILSRAIEIEEENKRLLEGMEMIFGQVIPGAKETEPYPVWSGLPSLQTKDEDARYSAFYNLLHCLRRDSSKIDTYLKLLNCRIIYNNNC
For B2, the “bromocriptine-induced reductions in milk yield” value [14] is given as “can prevent”.
